Assay results as given in PMC9482650, “Quantitative fragmentomics allow affinity mapping of interactomes” (Nature Communications, 2022).

What was measured:
Assay in all cases: holdup assay
Design in all cases: key: below the threshold = too weak to quantify, mostly under pKd 3.1 to 4
RHPN1, Q8TCX5 = target: T1, RHPN1, Q8TCX5
T1 sequence (Q8TCX5 508-602, limits assumed, looked up): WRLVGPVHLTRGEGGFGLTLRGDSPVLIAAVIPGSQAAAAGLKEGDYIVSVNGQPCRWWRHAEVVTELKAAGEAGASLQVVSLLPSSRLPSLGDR

Inadl_6, Q8NI35 = target: Inadl_6, Q8NI35
DLG4_3, P78352 = target: DLG4_3, P78352
CARD11, Q9BXL7 = target: T2, CARD11, Q9BXL7
T2 sequence (Q9BXL7 662-765, limits assumed, looked up): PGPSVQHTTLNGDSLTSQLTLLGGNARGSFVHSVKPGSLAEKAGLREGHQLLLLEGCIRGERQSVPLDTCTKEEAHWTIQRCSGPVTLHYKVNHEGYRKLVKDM

GRID2IP_2, A4D2P6 = target: GRID2IP_2, A4D2P6
PTPN3, P26045 = target: PTPN3, P26045
DFNB31_3, Q9P202 = target: T3, DFNB31_3, Q9P202
T3 sequence (Q9P202 811-907, limits assumed, looked up): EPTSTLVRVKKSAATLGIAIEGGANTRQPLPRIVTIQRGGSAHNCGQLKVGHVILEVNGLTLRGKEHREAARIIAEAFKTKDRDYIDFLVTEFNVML

MAGI2_5, Q86UL8 = target: MAGI2_5, Q86UL8
Inadl_10, Q8NI35 = target: Inadl_10, Q8NI35
DVL3, Q92997 = target: T4, DVL3, Q92997
T4 sequence (Q92997 244-331, limits assumed, looked up): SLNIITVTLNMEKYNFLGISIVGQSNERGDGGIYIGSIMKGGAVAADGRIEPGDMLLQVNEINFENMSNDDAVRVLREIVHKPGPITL

CASK, O14936 = target: CASK, O14936
PCLO, Q9Y6V0 = target: T5, PCLO, Q9Y6V0
T5 sequence (Q9Y6V0 4491-4600, limits assumed, looked up): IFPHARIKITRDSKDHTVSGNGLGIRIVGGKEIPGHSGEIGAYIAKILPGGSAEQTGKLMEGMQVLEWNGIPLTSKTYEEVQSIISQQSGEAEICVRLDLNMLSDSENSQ

MAST1, Q9Y2H9 = target: MAST1, Q9Y2H9
SCRIB_3, Q14160 = target: SCRIB_3, Q14160
DLG1_2, Q12959 = target: DLG1_2, Q12959
MAGI1_2, Q96QZ7 = target: MAGI1_2, Q96QZ7
TJP2_1, Q9UDY2 = target: TJP2_1, Q9UDY2
DLG3_3, Q92796 = target: T6, DLG3_3, Q92796
T6 sequence (Q92796 374-475, limits assumed, looked up): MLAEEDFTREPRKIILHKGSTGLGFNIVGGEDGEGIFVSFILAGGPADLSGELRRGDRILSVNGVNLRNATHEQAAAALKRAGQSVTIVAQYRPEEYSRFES

NHERF2_2, Q15599 = target: NHERF2_2, Q15599
LNX2_3, Q8N448 = target: T7, LNX2_3, Q8N448
T7 sequence (Q8N448 463-564, limits assumed, looked up): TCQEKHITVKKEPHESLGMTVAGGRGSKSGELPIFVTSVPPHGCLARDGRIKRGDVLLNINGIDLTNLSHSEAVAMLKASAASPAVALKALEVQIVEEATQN

GRIP1_7, Q9Y3R0 = target: T8, GRIP1_7, Q9Y3R0
T8 sequence (Q9Y3R0 999-1096, limits assumed, looked up): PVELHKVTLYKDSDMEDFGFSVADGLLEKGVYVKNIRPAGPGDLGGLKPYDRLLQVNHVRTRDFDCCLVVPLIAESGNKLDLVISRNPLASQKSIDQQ

MAGI2_3, Q86UL8 = target: MAGI2_3, Q86UL8
GRIP1_3, Q9Y3R0 = target: T9, GRIP1_3, Q9Y3R0
T9 sequence (Q9Y3R0 247-346, limits assumed, looked up): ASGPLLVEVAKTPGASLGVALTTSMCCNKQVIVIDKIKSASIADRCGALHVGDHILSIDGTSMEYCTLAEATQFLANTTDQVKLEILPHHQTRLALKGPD

DFNB31_1, Q9P202 = target: T10, DFNB31_1, Q9P202
T10 sequence (Q9P202 135-233, limits assumed, looked up): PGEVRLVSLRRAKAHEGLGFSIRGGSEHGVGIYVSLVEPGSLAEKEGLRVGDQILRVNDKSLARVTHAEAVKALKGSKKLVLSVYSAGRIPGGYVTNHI

FRMPD3, Q5JV73 = target: FRMPD3, Q5JV73
TIAM2, Q8IVF5 = target: T11, TIAM2, Q8IVF5
T11 sequence (Q8IVF5 885-986, limits assumed, looked up): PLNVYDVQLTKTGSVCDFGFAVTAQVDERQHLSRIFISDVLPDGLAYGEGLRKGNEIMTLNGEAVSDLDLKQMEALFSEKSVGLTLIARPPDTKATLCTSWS

DLG1_1, Q12959 = target: DLG1_1, Q12959
[1] = plain residues with an end cap or a label only (N-terminal biotin on a linker: ado-ado)
[2] = plain residues with an end cap or a label only (N-terminal biotin on a linker: ahx)

Chain of PTPN3, P26045 (P26045 505-587): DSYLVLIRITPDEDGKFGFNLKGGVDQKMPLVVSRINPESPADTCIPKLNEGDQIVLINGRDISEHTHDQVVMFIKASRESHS
Chain of Inadl_6, Q8NI35 (Q8NI35 1058-1167): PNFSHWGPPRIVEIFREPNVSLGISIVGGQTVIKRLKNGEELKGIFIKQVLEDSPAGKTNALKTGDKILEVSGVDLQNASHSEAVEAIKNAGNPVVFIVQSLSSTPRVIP
Chain of DLG4_3, P78352 (P78352 306-403): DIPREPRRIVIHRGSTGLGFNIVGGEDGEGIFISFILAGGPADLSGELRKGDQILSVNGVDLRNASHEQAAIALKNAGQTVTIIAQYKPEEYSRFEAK
Chain of MAGI2_5, Q86UL8 (Q86UL8 915-1017): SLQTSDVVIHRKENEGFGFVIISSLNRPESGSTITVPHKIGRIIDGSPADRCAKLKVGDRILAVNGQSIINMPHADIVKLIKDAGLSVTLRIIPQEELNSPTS
Chain of GRID2IP_2, A4D2P6 (A4D2P6 272-370): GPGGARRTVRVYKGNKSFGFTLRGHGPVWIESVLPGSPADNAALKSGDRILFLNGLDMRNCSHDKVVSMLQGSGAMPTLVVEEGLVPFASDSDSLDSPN
Chain of Inadl_10, Q8NI35 (Q8NI35 1673-1763): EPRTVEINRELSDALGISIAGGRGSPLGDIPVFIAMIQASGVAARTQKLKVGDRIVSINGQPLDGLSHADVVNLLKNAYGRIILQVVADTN
Chain of MAST1, Q9Y2H9 (Q9Y2H9 962-1065): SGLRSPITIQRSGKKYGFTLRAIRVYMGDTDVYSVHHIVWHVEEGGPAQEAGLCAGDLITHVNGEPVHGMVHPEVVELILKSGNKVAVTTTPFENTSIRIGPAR
Chain of SCRIB_3, Q14160 (Q14160 999-1103): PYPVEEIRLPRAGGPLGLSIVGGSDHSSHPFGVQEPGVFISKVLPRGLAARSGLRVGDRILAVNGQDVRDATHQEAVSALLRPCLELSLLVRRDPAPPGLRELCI
Chain of FRMPD3, Q5JV73 (Q5JV73 12-100): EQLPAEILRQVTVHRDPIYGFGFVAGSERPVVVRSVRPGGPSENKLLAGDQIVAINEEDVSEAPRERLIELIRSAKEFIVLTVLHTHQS
Chain of NHERF2_2, Q15599 (Q15599 142-238): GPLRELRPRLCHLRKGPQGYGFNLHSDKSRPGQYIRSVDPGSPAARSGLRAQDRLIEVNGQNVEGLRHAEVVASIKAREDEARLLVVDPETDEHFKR
Chain of MAGI1_2, Q96QZ7 (Q96QZ7 456-580): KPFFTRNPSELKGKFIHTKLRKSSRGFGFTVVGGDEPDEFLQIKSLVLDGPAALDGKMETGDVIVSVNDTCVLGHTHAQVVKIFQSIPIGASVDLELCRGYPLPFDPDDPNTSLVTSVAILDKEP
Chain of TJP2_1, Q9UDY2 (Q9UDY2 24-128): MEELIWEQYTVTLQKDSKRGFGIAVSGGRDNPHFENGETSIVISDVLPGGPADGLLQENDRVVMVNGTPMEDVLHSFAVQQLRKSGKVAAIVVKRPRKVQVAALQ
Chain of MAGI2_3, Q86UL8 (Q86UL8 600-682): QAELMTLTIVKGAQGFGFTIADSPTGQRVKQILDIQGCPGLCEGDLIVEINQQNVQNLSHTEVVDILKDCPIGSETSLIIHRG
Chain of CASK, O14936 (O14936 487-570): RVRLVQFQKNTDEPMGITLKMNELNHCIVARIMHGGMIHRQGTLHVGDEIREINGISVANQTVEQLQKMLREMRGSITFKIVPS

B1: TRIM50, Q86XT4 (peptide)
chain: PLSPEQPTKL
pKd (RHPN1, Q8TCX5; [1]): below the threshold | pKd (Inadl_6, Q8NI35; [1]): below the threshold | pKd (DLG4_3, P78352; [1]): below the threshold | pKd (CARD11, Q9BXL7; [1]): below the threshold | pKd (GRID2IP_2, A4D2P6; [1]): below the threshold | pKd (PTPN3, P26045; [1]): below the threshold | pKd (DFNB31_3, Q9P202; [1]): 3.93 | pKd (MAGI2_5, Q86UL8; [1]): below the threshold | pKd (Inadl_10, Q8NI35; [1]): below the threshold | pKd (DVL3, Q92997; [1]): below the threshold | pKd (CASK, O14936; [1]): below the threshold | pKd (PCLO, Q9Y6V0; [1]): below the threshold | pKd (MAST1, Q9Y2H9; [1]): 3.97 | pKd (SCRIB_3, Q14160; [1]): below the threshold | pKd (DLG1_2, Q12959; [1]): below the threshold | pKd (MAGI1_2, Q96QZ7; [1]): below the threshold | pKd (TJP2_1, Q9UDY2; [1]): below the threshold | pKd (DLG3_3, Q92796; [1]): below the threshold | pKd (NHERF2_2, Q15599; [1]): 3.86 | pKd (LNX2_3, Q8N448; [1]): below the threshold | pKd (GRIP1_7, Q9Y3R0; [1]): below the threshold | pKd (MAGI2_3, Q86UL8; [1]): below the threshold | pKd (GRIP1_3, Q9Y3R0; [1]): below the threshold | pKd (DFNB31_1, Q9P202; [1]): below the threshold | pKd (FRMPD3, Q5JV73; [1]): below the threshold | pKd (TIAM2, Q8IVF5; [1]): below the threshold | pKd (DLG1_1, Q12959; [1]): below the threshold

B2: PDZRN4, Q6ZMN7 (peptide)
chain: HNAFLSVTTV
pKd (RHPN1, Q8TCX5; [2]): below the threshold | pKd (Inadl_6, Q8NI35; [2]): below the threshold | pKd (DLG4_3, P78352; [2]): 3.56 | pKd (CARD11, Q9BXL7; [2]): below the threshold | pKd (GRID2IP_2, A4D2P6; [2]): below the threshold | pKd (PTPN3, P26045; [2]): below the threshold | pKd (DFNB31_3, Q9P202; [2]): below the threshold | pKd (MAGI2_5, Q86UL8; [2]): below the threshold | pKd (Inadl_10, Q8NI35; [2]): 3.57 | pKd (DVL3, Q92997; [2]): below the threshold | pKd (CASK, O14936; [2]): below the threshold | pKd (PCLO, Q9Y6V0; [2]): below the threshold | pKd (MAST1, Q9Y2H9; [2]): 3.65 | pKd (SCRIB_3, Q14160; [2]): below the threshold | pKd (DLG1_2, Q12959; [2]): 3.52 | pKd (MAGI1_2, Q96QZ7; [2]): 3.61 | pKd (TJP2_1, Q9UDY2; [2]): below the threshold | pKd (DLG3_3, Q92796; [2]): below the threshold | pKd (NHERF2_2, Q15599; [2]): below the threshold | pKd (LNX2_3, Q8N448; [2]): below the threshold | pKd (GRIP1_7, Q9Y3R0; [2]): below the threshold | pKd (MAGI2_3, Q86UL8; [2]): 3.49 | pKd (GRIP1_3, Q9Y3R0; [2]): below the threshold | pKd (DFNB31_1, Q9P202; [2]): below the threshold | pKd (FRMPD3, Q5JV73; [2]): below the threshold | pKd (TIAM2, Q8IVF5; [2]): below the threshold | pKd (DLG1_1, Q12959; [2]): 3.54
